Measured values reported in patent publication US20220306768A1, “REDIRECTING DEATH-INDUCING SIGNAL COMPLEX (DISC) BY MODIFYING DEATH RECEPTOR AGONIST TO INDUCE CELL DEATH FOR CANCER TREATMENT” (CITY OF HOPE, priority 2021, published 2022).
Entries after “also recorded” stand apart in the source; their conditions may differ.

Assays:
[1] = phase I studies (Herbst et al., 2010); cited from earlier work
[2] = test system: NCI 60-cancer cell panel (60 different human cancer cell lines); test: NCI 60-cancer cell panel, cell death; assay type: cell-based
Protocol: TAT-TRAIL was tested in an NCI 60-cancer cell panel, which included 60 different human cancer cell lines set up by the National Cancer Institute for cancer therapeutics screening. Among the 60 cell lines of various cancer types, 33 were sensitive to parental TRAIL, but 27 were resistant.

[3] = test system: TRAIL-sensitive cancer cell lines; test: Caspase activity in cancer cell lines (FIG. 8); assay type: cell-based
Text: Of the 60 NCI cancer cell lines, 33 TRAIL-sensitive cells lines become more sensitive to TAT-TRAIL, while 17 of TRAIL-resistant cell lines become sensitive to TAT-TRAIL, only 10 cell lines remain resistant.

[4] = test system: Hep3B cell line; test: Cell viability in the Hep3B cell line (FIG. 9); assay type: cell-based; conditions: after 48 hours
[5] = test system: cancer cell lines; test: Cell death induction in cancer cell lines (Example 1); assay type: cell-based
Text: Redirecting TRAIL-induced signaling away from lysosomal degradation induced massive cell death and overcame TRAIL resistance. This was done by fusing bioactive protein transduction domains (PTD—or CPPs) and signaling peptides, such as TAT peptide from HIV TAT protein, NLS (nuclear localization signal), MTS (mitochondrial targeting sequence), with TRAIL to construct a series of new TRAILs, as shown in FIG. 7.

[6] = test system: OVCAR3 cells; test: Ovarian cancer xenograft model OVCAR3, implanted intraperitoneally; assay type: in vivo; conditions: intraperitoneal implant, preliminary data, FIG. 6
Protocol: (§1) In vivo testing was performed using ovarian cancer xenograft models, OVCAR3 and A2780, implanted intraperitoneally.

[7] = test system: A2780 cells; test: Ovarian cancer xenograft model A2780, implanted intraperitoneally; assay type: in vivo; conditions: intraperitoneal implant, preliminary data, FIG. 6
Protocol: as §1

[8] = among the 60 cell lines of various cancer types
[9] = of the 60 NCI cancer cell lines

Molecule: recombinant human TRAIL: recombinant human tumor necrosis factor-related apoptosis-inducing ligand tested in clinical studies
- tolerability [1]: well tolerated

B1: parental TRAIL: His-tagged parental TRAIL construct without TAT peptide, used as comparator (protein, UniProt P50591 39-281, looked up)
extracellular domain: TNELKQMQDKYSKSGIACFLKEDDSYWDPNDEESMNSPCWQVKWQLRQLVRKMILRTSEETISTVQEKQQNISPLVRERGPQRVAAHITGTRGRSNTLSSPNSKNEKALGRKINSWESSRSGHSFLSNLHLRNGELVIHEKGFYYIYSQTYFRFQEEIKENTKNDKQMVQYIYKYTSYPDPILLMKSARNSCWSKDAEYGLYSIYQGGIFELKENDRIFVSVTNEHLIDMDHEASFFGAFLVG
modifications: extracellular domain His tag
notes: His-tagged parental TRAIL construct without TAT peptide, used as comparator
- number of cell lines resistant to the agent [2, 8]: 27
- number of cell lines sensitive to the agent [2, 8]: 33

B2: TAT-TRAIL: fusion protein: TRAIL component fused to a 9-amino acid TAT peptide (RKKRRQRRR, SEQ ID NO:2); e.g. poly-His-TAT-hTRAIL94-281 (SEQ ID NO:3) (protein)
chain: HHHHHHRKKRRQRRRRTSEETISTVQEKQQNISPLVRERGPQRVAAHITGTRGRSNTLSSPNSKNEKALGRKINSWESSRSGHSFLSNLHLRNGELVIHEKGFYYIYSQTYFRFQEEIKENTKNDKQMVQYIYKYTSYPDPILLMKSARNSCWSKDAEYGLYSIYQGGIFELKENDRIFVSVTNEHLIDMDHEASFFGAFLVG
modifications: TAT-TRAIL
- cell death in TRAIL-sensitive cell lines compared with His-tagged parental TRAIL construct ([2]; TRAIL-sensitive cell lines (33 of 60), FIG. 5): faster and massive cell death in all 33 TRAIL-sensitive cell lines
- increase of potency over parental TRAIL ([2]; cell lines resistant to parental TRAIL): up to a hundred times
- number of TRAIL-sensitive cell lines that become more sensitive [2, 9]: 33
- number of cell lines that remain resistant [2, 9]: 10
- number of TRAIL-resistant cell lines in which effective cell death was executed (become sensitive) ([2]; out of the 27 cell lines resistant to parental TRAIL): 17
- caspase activity compared to control and His-tagged parental TRAIL [3]: higher caspase activity
- IC50 (cell viability) [4]: low
- potency as compared to the His-tagged parental TRAIL [4]: approximately sixty times greater potency
- cell death in TRAIL-resistant cancer cells ([5]; TRAIL-resistant cancer cells): induced massive cell death in TRAIL-resistant cancer cells
- time to induce cell death ([5]; cancer cell lines): less than 1 hour
- potency in inducing cell death, cancer cells versus normal cells ([5]; cancer cells and normal cells): remarkable high potency in inducing cell death in cancer cells but not normal cells
- antitumor effects [6]: notable antitumor effects; also recorded: remarkable antitumor effects
- antitumor effects [7]: notable antitumor effects; also recorded: remarkable antitumor effects
